Here are results for one molecule from US20260234290, “Antibodies to Stat3 Decoy Oligonucleotide” (The Regents of the University of California, published 2026).

One data set has as its target 4E4 Fab (UniProt P01764;A0A075B6I4 SEQ:1-116,SEQ:1-110). The data set is described as follows: BLI; 2 uM Fab; RT; described as weak binding. Conditions: myc tag; Ni-NTA purified from E. coli BL21(DE3) periplasm; label: biotin; cyclic 15-mer double-stranded decoy. The protocol:
(§1) All buffers were filter sterilized with […] filters prior to preparing samples. Black 384 well microplates were used to set up BLI plates and streptavidin tips were purchased by Sartorius. Kinetic constants of Fabs were determined by Octet RED384 system with continuous shaking at 1000 rpm in RT. Prior to the experiment, biological tips (model name) were presoaked in buffer to allow for equilibration for 1 hour. Data were analyzed using 1:1 interaction model on the ForteBio data analysis software 12.0.

Another data set addresses SP1-B3 Fab (UniProt A0A0B4J1U7;A0A087WSX0 SEQ:1-120,SEQ:1-115). Kind of data set: BLI; 2 uM Fab; CS3D on streptavidin tips; RT; RAPID-sorted clone. Conditions: myc tag; Ni-NTA purified from E. coli BL21(DE3) periplasm; label: biotin; cyclic 15-mer double-stranded decoy. As for the experimental part:
as §1
On the technique in general: In BLI a coated tip is dipped into the sample, and binding shifts an interference pattern.

Chain of SP1-B3 Fab (A0A0B4J1U7 other isoform, or with tags, fused parts or gaps, chain 1 of 2): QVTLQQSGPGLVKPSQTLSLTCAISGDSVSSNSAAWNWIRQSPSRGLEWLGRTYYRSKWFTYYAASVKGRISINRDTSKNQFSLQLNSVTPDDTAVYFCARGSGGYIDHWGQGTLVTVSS
Chain of SP1-B3 Fab (A0A087WSX0 other isoform, or with tags, fused parts or gaps, chain 2 of 2): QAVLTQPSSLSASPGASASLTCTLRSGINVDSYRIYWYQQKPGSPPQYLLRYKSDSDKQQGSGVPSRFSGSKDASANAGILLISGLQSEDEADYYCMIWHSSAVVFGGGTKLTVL
Chain of 4E4 Fab (P01764 other isoform, or with tags, fused parts or gaps, chain 1 of 2): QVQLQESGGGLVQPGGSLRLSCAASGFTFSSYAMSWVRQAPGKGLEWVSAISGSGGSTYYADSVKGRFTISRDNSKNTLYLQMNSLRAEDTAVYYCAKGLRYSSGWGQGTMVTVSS
Chain of 4E4 Fab (A0A075B6I4 other isoform, or with tags, fused parts or gaps, chain 2 of 2): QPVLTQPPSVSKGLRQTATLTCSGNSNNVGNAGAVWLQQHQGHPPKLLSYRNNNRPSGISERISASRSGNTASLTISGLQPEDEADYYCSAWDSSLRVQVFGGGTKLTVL

B1: CS3D (cyclic STAT3 decoy) (dsDNA)
DNA 1: CATTTCCCGTAAATC
DNA 2: GATTTACGGGAAATG
A word on the koff: it is the first-order rate constant of dissociation. A high value points to fast dissociation. As for B1, the koff in the data set with 4E4 Fab worked out at 0.111 s⁻¹; with SP1-B3 Fab, 0.0211 s⁻¹.
